The values below come from IntAct's records for PubMed 35850301.

To fix the notation:
B1: Maternal protein pumilio (Drosophila melanogaster (Fruit fly)), P25822 (parent)
chain: MKFLGGNDDRNGRGGVGVGTDAIVGSRGGVSQDAADAAGAAAAAAVGYVFQQRPSPGGVGVGVGGVGGGVPGVGAVGSTLHEAAAAEYAAHFAQKQQQTRWACGDDGHGIDNPDKWKYNPPMNPANAAPGGPPGNGSNGGPGAIGTIGMGSGLGGGGGGGAGGGNNGGSGTNGGLHHQSMAAAAANMAAMQQAAALAKHNHMISQAAAAVAAQQQHQHPHQQHPQQQQQQQQAQNQGHPHHLMGGGNGLGNGNGLGIQHPGQQQQQQQQQQQQQHPGQYNANLLNHAAALGHMSSYAQSGGSMYDHHGGAMHPGMNGGMPKQQPLGPPGAGGPQDYVYMGGQTTVPMGAAMMPPQNQYMNSSAVAAANRNAAITTSTAKKLWEKSDGKGVSSSTPGGPLHPLQIPGIGDPSSVWKDHTWSTQGENILVPPPSRAYAHGGASDTSNSGNAGILSPRDSTCAKVVEYVFSGSPTNKDSSLSGLEPHLRNLKFDDNDKSRDDKEKANSPFDTNGLKKDDQVTNSNGVVNGIDDDKGFNRTPGSRQPSPAEESQPRPPNLLFPPLPFNHMLMDHGQGMGGGLGGVVGSGNGVGGGSGGGGAGGAYAAHQQMAAQMSQLQPPMMNGVGGGMPMAAQSPMLNHQAAGPNHMESPGNLLQQQNFDVQQLFRSQNPGLAAVATNAAAAAAAAAAATSAASAAAAVGAPPVPNGSLQQSQQQQQQQQQQQQQQQMHMAAASQQFLAAQQQAQNAAYAAQQATSYVINPGQEAAPYMGMIAAAQMPYYGVAPWGMYPGNLIPQQGTQPRRPLTPSQQGAENQPYQVIPAFLDHTGSLLMGGPRTGTPMRLVSPAPVLVPPGATRAGPPPPQGPQLYQPQPQTAQQNLYSQQNGSSVGGLALNTSSLTGRRDSFDRSTSAFSPSTMDYTSSGVAAAANAVNSTVAQAAAAAAAAAAARGKWPGAMSGAASGAYGALGAGNASASPLGAPITPPPSAQSCLLGSRAPGAESRQRQQQQQQLAAVGLPATAAAAQAAVAAAANNMFGSNSSIFSNPLAIPGTAAVAAAAAAAAAANSRQVAATAAAAAAVAAAAGGVGGAPQPGRSRLLEDFRNQRYPNLQLRDLANHIVEFSQDQHGSRFIQQKLERATAAEKQMVFSEILAAAYSLMTDVFGNYVIQKFFEFGTPEQKNTLGMQVKGHVLQLALQMYGCRVIQKALESISPEQQQEIVHELDGHVLKCVKDQNGNHVVQKCIECVDPVALQFIINAFKGQVYSLSTHPYGCRVIQRILEHCTAEQTTPILDELHEHTEQLIQDQYGNYVIQHVLEHGKQEDKSILINSVRGKVLVLSQHKFASNVVEKCVTHATRGERTGLIDEVCTFNDNALHVMMKDQYANYVVQKMIDVSEPTQLKKLMTKIRPHMAALRKYTYGKHINAKLEKYYMKITNPITVGTGAGGVPAASSAAAVSSGATSASVTACTSGSSTTTTSTTNSLASPTICSVQENGSAMVVEPSSPDASESSSSVVSGAVNSSLGPIGPPTNGNVVL
partner: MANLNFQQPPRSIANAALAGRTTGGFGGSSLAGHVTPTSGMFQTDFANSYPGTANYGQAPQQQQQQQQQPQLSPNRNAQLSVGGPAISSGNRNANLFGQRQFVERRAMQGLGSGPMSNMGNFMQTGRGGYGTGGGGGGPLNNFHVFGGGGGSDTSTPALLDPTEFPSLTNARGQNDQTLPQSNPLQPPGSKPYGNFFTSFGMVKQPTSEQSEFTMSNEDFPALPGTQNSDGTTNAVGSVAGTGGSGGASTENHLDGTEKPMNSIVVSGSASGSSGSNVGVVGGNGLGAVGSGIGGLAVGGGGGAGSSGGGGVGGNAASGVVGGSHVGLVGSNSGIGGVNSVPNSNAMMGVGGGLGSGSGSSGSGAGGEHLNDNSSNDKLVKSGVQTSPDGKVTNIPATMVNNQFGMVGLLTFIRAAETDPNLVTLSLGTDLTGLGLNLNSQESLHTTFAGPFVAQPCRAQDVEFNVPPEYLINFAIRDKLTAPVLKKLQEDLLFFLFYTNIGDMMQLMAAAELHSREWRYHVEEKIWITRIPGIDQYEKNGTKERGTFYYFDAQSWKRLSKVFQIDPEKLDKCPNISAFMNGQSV

In the first experiment the parent is B1. The settings on record: with rga_drome Rga.
With F1040A, the “effect of a mutation on the interaction” value was “with no effect”.

For F1033A;F1040A, the “effect of a mutation on the interaction” value is “decreasing interaction strength”.

Take F1033A: the “effect of a mutation on the interaction” value was “with no effect”.

Another experiment covers variants of B1. As to conditions: with rga_drome Rga. The source holds these as a separate data set.
For F1033A;F1040A, the “effect of a mutation on the interaction” value was “decreasing interaction strength”.
